From the nanobody polyreactivity screen of Harvey et al. (2022)

Assay: yeast display, Sf9 membrane polyspecificity reagent, FACS + sequencing; frameworks hold sequencing errors
Method in brief: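 Galactose-induced (36–48 hours) yeast carrying a synthetic nanobody display library were exposed to 10% biotinylated, detergent-solubilized Sf9 membrane reagent at 4 °C for 1 hour. FACS followed streptavidin microbead enrichment, using low and high (top ~1%) gates for expression (anti-HA) and reagent binding (streptavidin). Colony PCR, MiSeq 2 × 250 sequencing and CDR-length filtering followed. Labels for polyreactivity reflect the gate of origin.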

## QVQLVESGGGLVQAGGSLRLSCAASGRIFRYYAMGWYGQAPGKEREFVAAINSSGVNTYYADSVKGRFTISRDNAKNTVYLQMNSLKPEDTAVYYCAFLGMDYWGQGTQVTVSS
  polyreactivity (PSR sort gate): high polyreactivity

## QVQLVESGGGLVQAGGSLRLSCAASGSIFRYYAMGWYRQAPGKERELVAAIRWSGGSTYYADSVKGRFTISRDNAKNTVYLQMNSLKPEDTAVYYCAARVGYRGSRQYSSYTLVDYWGQGTQVTVSS
  polyreactivity (PSR sort gate): high polyreactivity

## QVQLVESGGGLVQAGGSLRLSCAASGSTFSPYAMGGSRQAPGKEREVVAAINSGSSTNYADSVKGRFTISRDNAKNTVYFQMNSLKPEDTAVYYCAADGQLPPRGILASWEFDYWGQGTQVTVSS
  polyreactivity (PSR sort gate): low polyreactivity

## QVQLVESGGGLVQAGGSLRLSSAASGRIFYRYTMGWYRQAPGKERELVAAITRGSTNYADSVKGRFTISRDNAKNTVYLQMNSLKPDDTAVYYWAKAYSRTDRFSSPYYYYWGQGTQVTVSS
  polyreactivity (PSR sort gate): high polyreactivity

## QVQLVESRGGLVQAGGSLRLSCAASGSTFTYYAMGWYRQAPGKERELVAAITFRGDSTYYADSVKVRFTISRDNAKNTVYFQMNSLKPEDTAVYYWGQGTQVTVSS
  polyreactivity (PSR sort gate): low polyreactivity

## QVQLVESGGGLVQAGGSLRLSCAASGSTFVYYAMGWYIQAPGKEREFVAGISRSGGSTYYADSVKGRFTISRDNAMNTVYLQMNSLKPEDTAVYSCNASGGLPKYGYWGQGTQVTVSS
  polyreactivity (PSR sort gate): high polyreactivity

## QVQLVESGGGLVQAGGSLRLSCAASGFTFYSNAMGWYRQAPGKERELVAAITSGGNTNYADSVKGRFTISRDNAKNTVYLQMNSLKPEDTAVYYCAAYPPSQRAEYDFWGQGTQVTVSS
  polyreactivity (PSR sort gate): low polyreactivity

## QVQLVESGGGLVQAGGSLRLSCAASGRIFRGYTMGWYRQAPGKERELVAAISRSTGSTNYADSVKGRFTISRDNAKNTVYLQMNSLKPEDTAVYYCAATVSPSYDYWGQGTQVTVSS
  polyreactivity (PSR sort gate): high polyreactivity

## QVELVESGGGLVQAGGSLRLSCDASGITFRSYAMGWYRQAPGKERELVAAIRSGGSTSYADSVKGRFTISRDNAKNTVYLQMNSLKPEDTAVYFCAAGGYVPLTDITFWKFGYWGQGSQVTVSS
  polyreactivity (PSR sort gate): low polyreactivity

## QVQLVESGGGLVQAGGSLRLSCAASGSTFRVYVMGWYRQAPGKERELVAAISQRGGSTYYADSVKGRFTISRDNAKNTVYLQMNSLKPEDTAVYYCAADQPGARTWSNRESDYWGQGTQVTVSS
  polyreactivity (PSR sort gate): high polyreactivity

## QVQLVESGGGLVQAGGSLRLSCAASGRIFRKNAMGWYRQAPGKERELVAAITSSGNTYYADSVKGRFTISRDNAKNTVYFQMNSLKPEDTAVYYCAARLKWLNRYGYDYWGQGTQVTVSS
  polyreactivity (PSR sort gate): low polyreactivity

## QVQLVESGGGLVQAGGSLRLSCAASGLTFRYYTMGWYRQAPGKERELVAAITKSGSSTYYADSVKGRFTISRDNAKNTVYLQMNSLKPEDTAVYYCAKDSNHWGQGTQVTVSS
  polyreactivity (PSR sort gate): high polyreactivity

## QVQLVESGGGLVQAGGSLRLSCAASGSTFEYYAMGWYRQAPGKEREFVAAITLSGGRTYYADSVKGRFTISRDNAKNTVYLQMNSLKPEDTAVYYCNVVVTWWLPSEYDYWGQGTQVTVSS
  polyreactivity (PSR sort gate): high polyreactivity

## QVQHVESGGGLVQAGGSLRLSCAASGYIFKGNVMGWYRQAPGKERELVAAISRSGGRTYYADSVKGRFTISRDNAKNTVYLQLNSLKPDDTAVFYCFTKHRTKPTRPVDYWGQGTQVTVSS
  polyreactivity (PSR sort gate): high polyreactivity

## QVQLVESGGGLVQAGGSLRLSCAASGRIFTHNAMGWYRQAPGKERELVAAITSGGRTTYADSVKGRFTISRDNAKNTVYFQMNSLKPEDTAVYYCNADTGLGSLDFDKRDYWGQGTQVTVSS
  polyreactivity (PSR sort gate): low polyreactivity

## QVQLVESGGGLVQAGGSLRLSCAASGFTFWYNAMGWYRQAPGKERELVAAISKSGGSTYYADSVKGRFTISRDNAKNTVYLQMNILKPEDTAVYYCAARLPYNRYNYWGQGTQVTVSS
  polyreactivity (PSR sort gate): high polyreactivity

## QVQLVESGVVLVEAGGSLRLSCAASGRILSVYAMGWYRQAPRKERELVAAIRRGVGSTYYADSVKGRFTISRDNAKNTVYLQMNSLKPEDTADYYCAPYSYHNRIRYDSWGQGTQVTVSS
  polyreactivity (PSR sort gate): high polyreactivity

## QVQLVESGGGLVQAGGILRLSCAASGFTFTYYAMGWYIQAPGKERELVAAITRDDSTNYADSVKGRFTISRDNAKNTVYLQMNSLKPEDTAVYYCAADSWYPSYGYWGQGTQVTVSS
  polyreactivity (PSR sort gate): low polyreactivity

## QVQLVESGGGLVQAGGSLRLSCAASGRINEYYAMGWYRQAPGKERELVAAISSGGSTYYADSVKGRFTISRDNAKNTVYFQMNSLKPEDTAVYYCAAVYSSYGRRYNSWGQGTQVTVSS
  polyreactivity (PSR sort gate): high polyreactivity

## QVQLVESGGGLVQAGGSLRLSCAASGLISIFYTMGWYRQAPGKERELVAAITSGGSSTYYADSVKGRFTISRDNAKNTVYLQMNCLIPVDTAVYYCAAEPGFYYYWGQGTQVTVSS
  polyreactivity (PSR sort gate): low polyreactivity

## QVQLVESGGGLVQAGGSLRLSCAASGFIQPYNTMGWYRQAPGKEREFVAAINYSGGRTYYADSVKGRFTISRDNAKNTVYLQMNRLKPEDTAVYYCAAARYPYRYKYNYWGQGTQVTVSS
  polyreactivity (PSR sort gate): high polyreactivity

## QVQLVESGGGLVQAGGSLRLSCAASGYIFRGYVMGWYRQAPGKERELVAAITSRGDSTYYADSVKGRFTISRDNAKNTVYLQMNSLKPEDTAVYYCNAVHYYVEYDYWGQGTEVTVSS
  polyreactivity (PSR sort gate): high polyreactivity

## QVQLVESGGGLVQAGGSLRLSCADSGRTLSVYAMGWYRQAPGKESELVAAITWRGGSTYYADSVKGRFTISRDNAKNTVYLQMNSLKPEDTAVYYCAAEDYTYNGGGFEYWGQGTQVTVAS
  polyreactivity (PSR sort gate): low polyreactivity

## QVQLVESGGGLVQAGGSLRLSCAASGSIFQRYTMGWYRQAPGKERELVARISGRGGSTYYADSVKGRFTISRDNAKNTVYLQMKSLKPEDTAVYYCAADTGRYLDSNYWGQGTQVTVSS
  polyreactivity (PSR sort gate): high polyreactivity

## QVRLVESGGGLVQAGGSLRLSCAASGRIFGYYTMGWYRQAPGKERELVADNNRDGSTYADSVKGRFTLSRDNAKNTVYLQMNSLKPEDTAVYYCNAQYDSAYGLGFFIGYFSQYDYWGQGTQVTVSS
  polyreactivity (PSR sort gate): low polyreactivity

## QVQLVESGGGLVQAGGSLRLSCAASGSTIEDYAMGWYRQAPGKERELVAAITSGDSTNYADSVKGRFTISRDNAKNTVYLQMNSLKPEDTAVYYCAARLRYSFWYWDDYWGQGTQVTVSS
  polyreactivity (PSR sort gate): high polyreactivity

## QVQLVESGGGLVQAGGSLRLSCAASGITFSAYAMGWYRQAPGKERELVAAISWSGGNTYYADSVKGRFTISRDNAKNTVYLQMNSLKPEDTAVYYCAAEREAYNTWFDYWGQGTQVTVSS
  polyreactivity (PSR sort gate): high polyreactivity

## QVQLVESGGGLVQAGGSLRLSCAASGSTFGRNAMGWYRQAPGKERELVAAINWSDGSTHYADSVKGRFTISRDNAKNTVYLQMNSLKPEDTAVYYCGADAWSWPVDYNYWGQGTQVTVSS
  polyreactivity (PSR sort gate): low polyreactivity

## QVQLVESGGGLVQAGGSLRLSCAASGFIFRYNAMGWYRQAPGKERELVASISYSGARTYYADSVKGRFTISRDNEKNTVYLQMNSLKPEDTAVYYCATGPLSYVRYYYWGQGTQVTVSS
  polyreactivity (PSR sort gate): low polyreactivity

## QVQLVESGGGLVQAGGSLRLSCAASGGTFYGYAAMGWYRQAPGKERELVAAISRSGGRTYYADSVKGRFTISRDNAKNTVYLQMNSLKPEDTAVYYCNVGFYPYYFLTYQGGDYWGQGTQVTVSS
  polyreactivity (PSR sort gate): high polyreactivity

## QVQLVESGGGLVQAGGSLRLSCAASGIIFSDYAMGWYRQAPGKERELVAAITGGGSTYYADSVKGRFTISPDNAQNTVYLQMNSLKPEDTSVYYCNTDAWHETPVSGYSWGQCTQVTVSS
  polyreactivity (PSR sort gate): low polyreactivity

## QVQLVESGGGLVQAGGSLRLSCAASGLIFSYYAMGWYRQAPGKERELVGAITGSGGSTYYADSVKGRFTISRDNAKNTVYLQMNSLKPEDTAVYYCAAGRYAYTLSRKYDYWGQGTQVTVSS
  polyreactivity (PSR sort gate): high polyreactivity

## QVQLVESGGGLVQAGGSLRLSCAASGSIFVLYAMGWYRQAPGKERELVAAITSAGSTYYADSVKGRFTISRDNAKNTVYLQMNSLKPEDTAVYYCAARRGASQRRYNYWGQGTQVTVSS
  polyreactivity (PSR sort gate): high polyreactivity

## QVQLVESGGGLVQAGGSLSLSCDASGSIFYYYAMGWYRQAPGKEREMVASITSSGGTTSYADSVKGRFTISRDNAKNTVYLQMNSLKPEDTAVYYCNAQVYRYRICYDFWGEGTQVTVSS
  polyreactivity (PSR sort gate): low polyreactivity

## QVQLVESGGGLVQAGGSLRLSCAASGSIWYYAMGWYRQAPWTERELVAAIRRGGSTYYADYVKGRFTISRDNAKNTVYVQMNSMKPEDTAVYYCAASWNYYKLDYWGQGTQVTVSS
  polyreactivity (PSR sort gate): high polyreactivity

## QVQLVESGGGLVQAGGTLRLSCAASGFTFRYYAMGWYRQAPGKERELVAAISRGGTTNYADSVKGRFTISRDNAKNTVYLQMNSLKPEDTAVYYCAARQYYSRVTYDYWGQGTQVTVSS
  polyreactivity (PSR sort gate): high polyreactivity

## QVQLVESGGGLVQARGSLRLSCAASGSTSDINAMGWYRHAPGKARELVAVITDSSNTDYADSVKGRFTISRDNAKNTVYLQMNSLKPEDTAVYYCARDDATAGDYWGQGTQVTVSS
  polyreactivity (PSR sort gate): low polyreactivity

## QVQIVESGGALVQAGGGHRLSCAASGRTFTYNAMGWYRQAPGKERELVAAITSGGSTNYADSVKGRFTISRDNAKNTVYLQMNSLKPEDTAVYYCAARRVYYSYRRYYYWGQGTQVTVSS
  polyreactivity (PSR sort gate): low polyreactivity

## QVQLVESGGGLVQAGGSLRLSCAASGRTFVNNAMGWYRQAPGKERELVASIRYIGGSTYYADSVKGRFTISRDNEKNTVYLQMNSLKPEDTAVYYCAALAGRRPYDYWGQGTQVTVSS
  polyreactivity (PSR sort gate): high polyreactivity

## QVQLVESGGCLVQAGGSLRLSCAASGSTFLGNAMGWYRQAPGKERELVAGITSGGTTNYADSVKGRFTISRDNAKNTVYLQMNSLKPEDTAVYYCNADVWIGQLFDPGYDFDYWGQGTQVTVSS
  polyreactivity (PSR sort gate): low polyreactivity

## QVQLVESGGGLVQAGGSLRLSCAASGRIFNGNAMGWYRQAPGNERELVAAISGSGGSTYYADSVKGRFTISRDNAKNTVYLQMNSLKPEDTAVYYCATKRVVHYNYWGQGTQVTVSS
  polyreactivity (PSR sort gate): high polyreactivity

## QVQLVESGGGLVQAGGSLRLSSAASGRISGYNMGWYRQAPGKERELVAAISNGGSTNYADSVKGRFTISRDNAKNTVYLQMNSLKPEDTAVYYCNRRVPYSFYSRGYYYWGQGTQVTVSS
  polyreactivity (PSR sort gate): high polyreactivity

## QVQLVESGGGLVQAGGSLRLSCAASGSIFGYYTKVWYRQARGKEREFVAAINTSGGSTYADSVKGRCTISRDNAKNTVYLQMNSLKPEDTAVYYCAADGYYEYTWGEYDSWGQGTQVTVSS
  polyreactivity (PSR sort gate): low polyreactivity
